Tested on: MS2 coat protein
Assay: apparent KD of MS2 coat protein; designed switch direction (-1 OFF switch, 1 ON switch): 1; higher = weaker reporter binding
In short: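 SNAP-549-labelled MS2 coat protein was titrated, doubling from 0.7 or 1.5 nM to 3 µM, over designed RNA switches transcribed on Illumina chips by stalled E. coli RNA polymerase. Runs were done without input, with 200 uM small-molecule ligand, or with an oligonucleotide input. Apparent KD is the per-design median over clusters of curve-fitted normalised fluorescence.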

[1] = input ligand: microRNA oligo, concentration not stated
[2] = Eterna round: R95, input ligand: FMN 200 uM
[3] = Eterna round: R95, input ligand: microRNA oligo, concentration not stated
[4] = Eterna round: R95, input ligand: none

| Sequence | apparent KD of MS2 coat protein (input ligand: FMN 200 uM) [nM] | apparent KD of MS2 coat protein [1] [nM] | apparent KD of MS2 coat protein (input ligand: none) [nM] | apparent KD of MS2 coat protein [2] [nM] | apparent KD of MS2 coat protein [3] [nM] | apparent KD of MS2 coat protein [4] [nM] |
| --- | --- | --- | --- | --- | --- | --- |
| GCUAGAAUCAAAGCCAACAUGAGGAUCACCCAUGUAUGUUGGUAGGAUAUCGUUUGCUUUGCAAACGAGAAGGACCAAACUAGC [SameState NG3 #1] (Eterna round: R96, puzzle: Same State NG 3) | 30.2 | 75.3 | 87.1 |  |  |  |
| AUGAUUAAUGCAGGAUAUGAUUAACAUGAGGAUCACCCAUGUGGUGUUGUGAGUAAGGAGAGUGAUCAGAAGGGCAUUUUUUUU [JMF's solution 34] (Eterna round: R96, puzzle: Same State NG 2) | 731 | 430 | 701 |  |  |  |
| GUUAUACAUGAGGAUCACCCAUGUCAAUGUAGUCGAGGAUAUGGGCAGCUAUGAGGCGUACUAGAAGGCGAGGAGU [JL-ss1-3.15 ViennaUCT mod] (puzzle: Same State 1) |  |  |  | 90.7 | 90.5 | 134 |
| UAGGAUCAACGAGGAUAUAAUAGGUUCUAUUCGUGAUAUUGCGUACAUGAGGAUCACCCAUGUUAUUAGAAGGCGUAUGGGUUU [JR_SSNG2_Sub085] (Eterna round: R96, puzzle: Same State NG 2) | 78.7 | 69.9 | 92.8 |  |  |  |
| AUUAAACAUGAGGAUCACCCAUGUCAACAAAGUCGAGGAUAUGGGCAUAUUAUCUAAUAACCAGAAGGCGAAUAAU [salish99_ss1_r3_085] (Eterna round: R96, puzzle: Same State 1) |  | 177 |  |  |  |  |
| GGAGCCAAGGCAGGAUAUUCAUAUAAAUUAACAUGAGGAUCACCCAUGUAGGCCAGAAGGCCUUGGGAGAAGGGCCAUGGCUCG [Xeonanis - 13 mod8] (Eterna round: R96, puzzle: Same State NG 2) | 21.6 | 143 | 157 |  |  |  |
| UAGUUGGUGGUAGGAUAUGUAGGAUAUGGCGAGAGCUAAGCUUGGAAGUCACUUCAGCCAGAAGGACAGAAGGACCAGUAGCUU [pwkr ssNG2 2FMN + F9.10] (Eterna round: R96, puzzle: Same State NG 2) | 105 | 24.2 | 79.1 |  |  |  |
| GGCAGGUGCAGGCUUGCUUGCACCUGGAGACAUGAGGAUCACCCAUGUUUGGGACAAGCUUUGCUCCUCGUCUUUUC [JL ViennaUCT Isusreraar mod 7] (puzzle: Sensor for hsa-mir-208a) |  |  |  | 617 | 104 | 766 |
| GGUAGGUUACUACCAAACAUGAGGAUCACCCAUGUUGAUGGGAAGGAUAUGGUACCUUUUAGGUACCAGAAGGUCUACUCGAUC [NGss mod of JL's mod of Fisker 3] (Eterna round: R96, puzzle: Same State NG 3) | 111 | 106 | 148 |  |  |  |
| ACAUGAGACUUAGGAUAUCUUGUACCUACAUGUGACAUGAGGAUCACCCAUGUGGUAAGUAUGAGGGAGAAGGAAGAGAUAUGU [Equivalence 38 - Jieux - Same State NG 2] (Eterna round: R96, puzzle: Same State NG 2) | 30.8 | 21 | 33.9 |  |  |  |
| UCUUGGUUUUUGCUCGUUUUUUGUGUUGAACAUGAGGAUCACCCAUGUAUUAUACGGUCCGGUUUAAUAAUAAUCCG [JMF 81] (puzzle: Sensor for hsa-mir-208a) |  |  |  | 24.2 | 14.6 | 27.3 |
| AUUUUUAAUGCAGGAUAUGAUUAACAUGAGGAUCACCCAUGUGGUGUUGUGAGUAAGGAGAGUGAUCAGAAGGGCAUUUUGUUU [JMF's solution 83] (Eterna round: R96, puzzle: Same State NG 2) | 747 | 400 | 687 |  |  |  |
| UUUGCAUGACGAGGAUAUCAUUUAUUUCAUGUUUGAGAAGGCGUUUUUUUUAUUACCUUACAUGAGGAUCACCCAUGUGUCUGU [JR_SSNG1_Sub044] (Eterna round: R96, puzzle: Same State NG 1) | 32.2 | 39.6 | 48.5 |  |  |  |
| GAGAGAGGAUGAGGAUAUGCAGUAAUAAUGAUAGCAGAAGGCAUAGACAUGAGGAUCACCCAUGUGGGAAUAAUCCAGAGAGAG [Parity 1 - Jieux - Same State NG 1] (Eterna round: R96, puzzle: Same State NG 1) |  | 132 |  |  |  |  |
| GACAGGCAAGCUUUUUUCUCGUAGUGUAGACAUGAGGAUCACCCAUGUGCUCGCCCUGGAUCUUUGGAUCGCAGAAA [Laaxeso] (puzzle: Sensor for hsa-mir-208a) |  |  |  | 17.7 | 14.4 | 16.7 |
| AAUAUAUUAAGUGAGGAUAUCGAGGAAAAAACAUGAGGAUCACCCAUGUGGGUAAAAAAAAAAAGUGAGAAGGUGCUUAAUAUAU [Samwise Clockwise 10 - Jieux - Same State 2] (Eterna round: R96, puzzle: Same State 2) | 34.9 | 40.1 | 69.1 |  |  |  |
| AUUUUUCAUGCAGGAUAUGAUUAACAUGAGGAUCACCCAUGUGGUGUUGUGAGUAAGGAGAGUGAUCAGAAGGGCAUUUUUUUU [JMF's solution 94] (Eterna round: R96, puzzle: Same State NG 2) | 837 | 342 | 503 |  |  |  |
| ACAUGAGAUCUAGGAUAUAUAGUACCUACAUGUGACAUGAGGAUCACCCAUGUGGUAAGUAUGACAUAGAAGGAGAAGAUAUGU [Equivalance 96 - Jieux - Same State NG 2] (Eterna round: R96, puzzle: Same State NG 2) | 37.2 | 50.9 | 55.5 |  |  |  |
| UGGUACAUGGGAGGAUAUCAUGUAGACACAUGAGGAUCACCCAUGUCGAUGGAGACAUCGGAGAUUGAGAAGGCCCAUGUACCU [JL SSNG1 3.55] (Eterna round: R96, puzzle: Same State NG 2) | 18.6 | 291 | 647 |  |  |  |
| UACUUAGUGGUAGGAUAUGUAGGAUAUGGCGAGAGCUAAGCUUGGAAGUCACUUCAGCCAGAAGGACAGAAGGACCACUCUCUC [pwkr ssNG2 2FMN + F9.12] (Eterna round: R96, puzzle: Same State NG 2) | 98 | 17.4 | 97.1 |  |  |  |
| AGUCCAGCCUGAGCUGGACAAAAGCAUGUACAUGAGGAUCACCCAUGUCAUGUACAAGCUUUUUGCUCGAAAUAAUA [Mat - hsa-mir-208a - Mod of JL - D32] (Eterna round: R96, puzzle: Sensor for hsa-mir-208a) | 626 | 14.4 | 561 |  |  |  |
| AUUUAACAAGCUUUUUGCUCGUCUUAUAAACAUGAGGAUCACCCAUGUAAUAGCGUGAGAGUAAUUAUUUAAAUAAU [JMF 94] (puzzle: Sensor for hsa-mir-208a) |  |  |  | 16.1 | 37.5 | 14.7 |
| AUAGUUUCCGAAGGAUAUGAUGAGGAUCACCCAUCAGAAGGUUGGCUAUUGGGCUGACAUGAGGAUCACCCAUGUUUCGGUGUU (Eterna round: R96, puzzle: Same State NG 1) | 33 | 29.1 | 41.4 |  |  |  |
| AGAUGUUAAUCAGGAUAUGGGCACAUGAGGAUCACCCAUGUAUUUUCGAUGCUAUGUGGAGACGUCUAGAAGGGAUGGCUAACA [SameState NG2 #86] (Eterna round: R96, puzzle: Same State NG 2) | 165 | 126 | 185 |  |  |  |
| AACAUGUGGUGUUACAUGAGGAUCACCCAUGUGGCAAAAGCUGAGGAUAUCAUUAAACCCAUGAAUGAGAAGGUAGGAUCACAA [AK SSNG3-V2-20] (Eterna round: R96, puzzle: Same State NG 3) | 85.2 | 124 | 127 |  |  |  |
| AUAAAACAUGAGGAUCACCCAUGUUAACAAAGUCGAGGAUAUGGGCAAAUAAAAUAAGAACCAGAAGGCGAAUAAU [salish99_ss1_r3_045] (puzzle: Same State 1) |  |  |  | 16.8 | 27.9 | 27.7 |
| GUGGUGGGUUGAGGAUAUUGGUUGUUGUUGUUUUACAUGAGGAUCACCCAUGUGGGUUGUGGUUUUGAGAAGGUUGGUUGCUGG [salish99_SSNG2_r04_048] (Eterna round: R96, puzzle: Same State NG 2) | 262 | 194 | 185 |  |  |  |
| AUUAUUAAUGCAGGAUAUGAUUAACAUGAGGAUCACCCAUGUGGUGUUGUGAGUAAGGAGAGUGAUCAGAAGGGCAUUUCUUUU [JMF's solution 11] (Eterna round: R96, puzzle: Same State NG 2) | 468 | 241 | 373 |  |  |  |
| GUAGCAUACCGAGGAUAUUCAUAUUACAUGAGGAUCACCCAUGUUAUAUAGGCCAAAAGGCCUUGGGAGAAGGCGGAAUGCUAC [Xeonanis - 20 Mod9] (Eterna round: R96, puzzle: Same State NG 2) | 10.3 | 9.73 | 14.7 |  |  |  |
| GAGGGACAGACCAACAUGAGGAUCACCCAUGUCCUCGCAGGUCAGGAUAUUAUGAGGAUCACCCGUGAGAAGGGACGGUGAAUU (Eterna round: R96, puzzle: Same State NG 3) | 709 | 390 | 804 |  |  |  |

Source: the supplement of paper PMC9170038
